The values that follow come from article PMC11638003, “Plant phytochrome interactions decode light and temperature signals” (The Plant Cell, 2024).

The chains are these.
B1: PIF6-mScarlet-I (Arabidopsis PIF6 residues 1 to 100 fused to mScarlet-I) (domain or fragment, Arabidopsis thaliana, UniProt Q8L5W7 1-100, looked up)
chain: MMFLPTDYCCRLSDQEYMELVFENGQILAKGQRSNVSLHNQRTKSIMDLYEAEYNEDFMKSIIHGGGGAITNLGDTQVVPQSHVAAAHETNMLESNKHVD
notes: mScarlet-I: GenBank APD76536; also called AtPIF6; source: E. coli LOBSTR, purified (IMAC, SENP2 cleavage, second IMAC, optionally anion exchange); not shown: His6-SUMO, N-terminal, cleaved
B3: Arabidopsis thaliana phytochrome B, N-terminal fragment encompassing the N-terminal extension (NTE) and the photosensory core module (AtPhyB PCM) (domain or fragment, UniProt P14713 1-651, looked up)
chain: MVSGVGGSGGGRGGGRGGEEEPSSSHTPNNRRGGEQAQSSGTKSLRPRSNTESMSKAIQQYTVDARLHAVFEQSGESGKSFDYSQSLKTTTYGSSVPEQQITAYLSRIQRGGYIQPFGCMIAVDESSFRIIGYSENAREMLGIMPQSVPTLEKPEILAMGTDVRSLFTSSSSILLERAFVAREITLLNPVWIHSKNTGKPFYAILHRIDVGVVIDLEPARTEDPALSIAGAVQSQKLAVRAISQLQALPGGDIKLLCDTVVESVRDLTGYDRVMVYKFHEDEHGEVVAESKRDDLEPYIGLHYPATDIPQASRFLFKQNRVRMIVDCNATPVLVVQDDRLTQSMCLVGSTLRAPHGCHSQYMANMGSIASLAMAVIINGNEDDGSNVASGRSSMRLWGLVVCHHTSSRCIPFPLRYACEFLMQAFGLQLNMELQLALQMSEKRVLRTQTLLCDMLLRDSPAGIVTQSPSIMDLVKCDGAAFLYHGKYYPLGVAPSEVQIKDVVEWLLANHADSTGLSTDSLGDAGYPGAAALGDAVCGMAVAYITKRDFLFWFRSHTAKEIKWGGAKHHPEDKDDGQRMHPRSSFQAFLEVVKSRSQPWETAEMDAIHSLQLILRDSFKESEAAMNSKVVDGVVQPCRDMAGEQGIDELGA
modifications: phycocyanobilin chromophore, covalently bound
notes: Phytochrome B, Arabidopsis thaliana, GenBank CAA35222.1; N-terminal fragment with the NTE and the PCM (nPAS-GAF-PHY), lacking PAS1, PAS2 and the HKRD; source: E. coli LOBSTR, purified (Co2+-NTA IMAC, anion exchange); plasmid also encodes Synechocystis sp. heme oxygenase 1 and PcyA
B4: P3A-mScarlet-I (Arabidopsis PIF3 residues 14 to 55, APB.A portion, fused to mScarlet-I) (domain or fragment, Arabidopsis thaliana, UniProt O80536 14-55, looked up)
chain: LESAQDRNPSPPVDEVVELVWENGQISTQSQSSRSRNIPPPQ-{mScarlet‑I}
notes: mScarlet-I: GenBank APD76536; source: E. coli LOBSTR, purified (IMAC, SENP2 cleavage, second IMAC, optionally anion exchange); not shown: His6-SUMO, N-terminal, cleaved; mScarlet-I, C-terminal, kept
B5: PIF3-mScarlet-I (Arabidopsis PIF3 residues 1 to 100 fused to mScarlet-I) (domain or fragment, Arabidopsis thaliana, UniProt O80536 1-100, looked up)
chain: MPLFELFRLTKAKLESAQDRNPSPPVDEVVELVWENGQISTQSQSSRSRNIPPPQANSSRAREIGNGSKTTMVDEIPMSVPSLMTGLSQDDDFVPWLNHH
notes: mScarlet-I: GenBank APD76536; also called AtPIF3; source: E. coli LOBSTR, purified (IMAC, SENP2 cleavage, second IMAC, optionally anion exchange); not shown: His6-SUMO, N-terminal, cleaved

The target of experiment [1] is P3A or PIF3. Description: FRET or BRET; as a5 (association and dissociation kinetics after a red-light pulse) at several temperatures up to 30 °C; values told for 30 °C or for 30 °C against 15 °C. On the technique in general: BRET reads energy transfer from a luciferase to a nearby fluorophore.
The target of experiment [2] is B3. Description: FRET or BRET; association kinetics at 15 °C after a 0.5-s pulse of red light (658 nm, 69 mW cm^-2, optical shutter); 20 nM PIF-mScarlet-I variant with 500 to 2,000 nM AtPhyB PCM, or 30 nM P6A-mScarlet-I with 750 to 2,500 nM AtPhyB (1-982); 50 mM Tris/HCl pH 8.0, 20 mM NaCl; pseudo-first-order, linear fit of koFR against the AtPhyB concentration; kaFR corrected for the Pfr fraction; Kd calculated from kdFR and kaFR …. The settings on record: both partners purified.

Experiment [3] concerns the target T1, P6A-mScarlet-I (Arabidopsis PIF6 residues 14 to 53, APB.A portion, fused to mScarlet-I) (Arabidopsis thaliana, UniProt Q8L5W7 14-53).
T1 construct: mScarlet-I: GenBank APD76536; source: E. coli LOBSTR, purified (IMAC, SENP2 cleavage, second IMAC, optionally anion exchange); not shown: His6-SUMO, N-terminal, cleaved; mScarlet-I, C-terminal, kept
T1 chain (looked up): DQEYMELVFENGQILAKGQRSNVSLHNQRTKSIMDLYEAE
Description: FRET or BRET; as a5 (association and dissociation kinetics after a red-light pulse) at several temperatures up to 30 °C; values told for 30 °C or for 30 °C against 15 °C. The following applies: both partners purified.

Experiment [4] has as its target B4. Description: FRET or BRET; dissociation kinetics at 15 °C under continuous far-red light (733 nm, 42 mW cm^-2) after saturating red light; same samples as a5; consecutive model (Pfr to Pr reversion, then dissociation); kaR fixed at 0 (Pr state). The following applies: both partners purified.
In experiment [5] the target is B5. The description is as above. The settings on record: both partners purified.
The target in experiment [6] is T1, P6A-mScarlet-I (Arabidopsis PIF6 …). Described as above. The settings on record: both partners purified.
Experiment [7] concerns the target B1. Described as above. The following applies: both partners purified.
For experiment [8], the target named is T1, P6A-mScarlet-I (Arabidopsis PIF6 …). Description: FRET or BRET; equilibrium titration: 20 nM P6A-mScarlet-I with 0 to 2,000 nM AtPhyB PCM at 15 °C after red light (658 nm); 50 mM Tris/HCl pH 8.0, 20 mM NaCl, 100 μg/mL BSA; single-site binding isotherm. The following applies: both partners purified.
Experiment [9] concerns the target B1. The experiment is described as follows: FRET or BRET; as a5 (association and dissociation kinetics after a red-light pulse) at several temperatures up to 30 °C; values told for 30 °C or for 30 °C against 15 °C. The following applies: both partners purified.

No end group written: not given here.

Take “Arabidopsis thaliana phytochrome B, N-terminal fragment encompassing the N-terminal extension (NTE) and the photosensory core module (AtPhyB PCM) (from UniProt P14713 1-651) (domain or fragment)”: the fold reduction of the affinity, 30 °C against 15 °C in [1] is 1.4 to 2.6 fold.
Broadly, the Kd is the concentration at which binding is half-saturated. A word on the koff: it is the rate constant with which the complex falls apart. By kon is commonly meant the second-order rate constant of association. For B1, in experiment [2], the Kd is 133 ± 55 nM, the koff was 0.07 s⁻¹ and the kon was 520000 M⁻¹ s⁻¹.

B2: Arabidopsis thaliana phytochrome B residues 1 to 982, AtPhyB (1-982) (domain or fragment, UniProt P14713 1-982, looked up)
chain: MVSGVGGSGGGRGGGRGGEEEPSSSHTPNNRRGGEQAQSSGTKSLRPRSNTESMSKAIQQYTVDARLHAVFEQSGESGKSFDYSQSLKTTTYGSSVPEQQITAYLSRIQRGGYIQPFGCMIAVDESSFRIIGYSENAREMLGIMPQSVPTLEKPEILAMGTDVRSLFTSSSSILLERAFVAREITLLNPVWIHSKNTGKPFYAILHRIDVGVVIDLEPARTEDPALSIAGAVQSQKLAVRAISQLQALPGGDIKLLCDTVVESVRDLTGYDRVMVYKFHEDEHGEVVAESKRDDLEPYIGLHYPATDIPQASRFLFKQNRVRMIVDCNATPVLVVQDDRLTQSMCLVGSTLRAPHGCHSQYMANMGSIASLAMAVIINGNEDDGSNVASGRSSMRLWGLVVCHHTSSRCIPFPLRYACEFLMQAFGLQLNMELQLALQMSEKRVLRTQTLLCDMLLRDSPAGIVTQSPSIMDLVKCDGAAFLYHGKYYPLGVAPSEVQIKDVVEWLLANHADSTGLSTDSLGDAGYPGAAALGDAVCGMAVAYITKRDFLFWFRSHTAKEIKWGGAKHHPEDKDDGQRMHPRSSFQAFLEVVKSRSQPWETAEMDAIHSLQLILRDSFKESEAAMNSKVVDGVVQPCRDMAGEQGIDELGAVAREMVRLIETATVPIFAVDAGGCINGWNAKIAELTGLSVEEAMGKSLVSDLIYKENEATVNKLLSRALRGDEEKNVEVKLKTFSPELQGKAVFVVVNACSSKDYLNNIVGVCFVGQDVTSQKIVMDKFINIQGDYKAIVHSPNPLIPPIFAADENTCCLEWNMAMEKLTGWSRSEVIGKMIVGEVFGSCCMLKGPDALTKFMIVLHNAIGGQDTDKFPFPFFDRNGKFVQALLTANKRVSLEGKVIGAFCFLQIPSPELQQALAVQRRQDTECFTKAKELAYICQVIKNPLSGMRFANSLLEATDLNEDQKQLLETSVSCEKQISRIVGD
modifications: phycocyanobilin chromophore, covalently bound
notes: the oligomeric state is not measured directly here; also called AtPhyB982; source: E. coli LOBSTR, purified (Co2+-NTA IMAC, anion exchange); plasmid also encodes Synechocystis sp. heme oxygenase 1 and PcyA
For the molecule B2, in experiment [3], the “fold change of kdFR, 30 °C against 15 °C” value worked out at 5 fold and the “fold reduction of the affinity, 30 °C against 15 °C” value was found to be 3 fold.
On to B3, for which the “kdR (dissociation rate constant of the complex in the Pr state)” value in experiment [4] is 1.9 s⁻¹; in [5] it was 1.6 s⁻¹; in experiment [6], 2.5 s⁻¹; in experiment [7], 0.26 s⁻¹. The “KD on the total AtPhyB concentration (not corrected for the Pfr fraction)” value in experiment [8] is 180 ± 110 nM. Further, in [3], the “fold change of kaFR, 30 °C against 15 °C” value was 1.3 fold. In addition, in [3], the “fold change of kdFR, 30 °C against 15 °C” value was 6.5 fold. Also, the “fold reduction of the affinity, 30 °C against 15 °C” value in experiment [9] was around 5 fold.
Consider B4, for which, in experiment [2], the Kd was 322 ± 109 nM, the koff is 0.1 s⁻¹ and the kon is 310000 M⁻¹ s⁻¹.
The like results for B5 were, in that order, 308 ± 42 nM, 0.13 s⁻¹ and 430000 M⁻¹ s⁻¹.
